Test results reported in US20240317834A1, “COMPOSITIONS AND METHODS FOR NEUROLOGICAL DISEASES” (CODA BIOTHERAPEUTICS, INC., priority 2020, published 2024).
Substitutions are numbered along the chain they refer to. Numbers in names are those of the source.

Tested on: Lenti-X 293T cells
Experiment: YFP fluorescence quenching anion reporter plate reader assay of engineered receptors stimulated with acetylcholine or a non-native ligand
Assay type: cell-based
Conditions: for percent quench of YFP fluorescence, 30 nM TC-6683: TC-6683 30 nM; for percent quench of YFP fluorescence, 300 nM TC-6683: TC-6683 300 nM; for percent quench of YFP fluorescence, 3 uM TC-6683: TC-6683 3 uM; for percent quench of YFP fluorescence, 30 uM TC-6683: TC-6683 30 uM; for percent quench of YFP fluorescence, 100 uM TC-6683: TC-6683 100 uM; for percent quench of YFP fluorescence, 10 uM ach: acetylcholine 10 uM; for percent quench of YFP fluorescence, 100 uM ach: acetylcholine 100 uM; for percent quench of YFP fluorescence, 1 mM ach: acetylcholine 1 mM; for percent quench of YFP fluorescence, 3 mM ach: acetylcholine 3 mM
Method in brief: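 Lenti-X 293T cells carrying a YFP anion reporter were transiently transfected with channel DNA and assayed the next day in HEPES-buffered ECS at pH 7.2. Ligand (acetylcholine or non-native ligand) was added in NaI-substituted ECS. Percent quench was the mean of the last 10 s relative to the 15 s pre-addition baseline.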

B1: CODA339: engineered chimeric LGIC receptor, L131D in SEQ ID NO: 33 (protein)
chain: MRCSPGGVWLALAASLLHVSLQGEFQRKLYKELVKNYNPLERPVANDSQPLTVYFSLSLLQIMDVDEKNQVLTTNIWLQMSWTDHYLQWNVSEYPGVKTVRFPDGQIWKPDILLYNSADERFDATFHTNVDVNSSGHCQYLPPGIFKSSCPMDLKNFPMDVQTCKLKFGSWSYGGWSLDLQMQEADISGYIPNGEWDLVGIPGKRSERFYECCKEPYPDVTFTVTMRRRMGYYLIQMYIPSLLIVILSWISFWINMDAAPARVGLGITTVLTMTTQSSGSRASLPKVSYVKAIDIWMAVCLLFVFSALLEYAAVNFVSRQHKELLRFRRKRRHHKSPMLNLFQEDEAGEGRFNFSAYGMGPACLQAKDGISVKGANNSNTTNPPPAPSKSPEEMRKLFIQRAKKIDKISRIGFPMAFLIFNMFYWIIYKIVRREDVHNQ
modifications: synthetic sequence of chimeric LGIC
YFP fluorescence quenching using CNL001 (1 nM CNL001, first column): 73.711% | YFP fluorescence quenching using CNL001 (1 nM CNL001, second column): 76.44% | YFP fluorescence quenching using TC-5619/Bradanicline (1 nM brd): 4.12% | YFP fluorescence quenching using TC-5619/Bradanicline (3 nM brd): 19.15% | YFP fluorescence quenching using Varenicline (3 nM var, first column): −0.902 | YFP fluorescence quenching using Varenicline (3 nM var, second column): −7.62 | YFP fluorescence quenching using CNL001 (10 nM CNL001, first column): 77.049% | YFP fluorescence quenching using CNL001 (10 nM CNL001, second column): 77.76% | YFP fluorescence quenching using TC-5619/Bradanicline (10 nM brd): 68.98% | YFP fluorescence quenching using TC-5619/Bradanicline (30 nM brd): 77.29% | YFP fluorescence quenching using Facinicline (30 nM fac): 12.67 | YFP fluorescence quenching using Varenicline (30 nM var, first column): −6.009 | YFP fluorescence quenching using Varenicline (30 nM var, second column): −3.447 | YFP fluorescence quenching using CNL001 (50 nM CNL001, first column): 77.882% | YFP fluorescence quenching using CNL001 (50 nM CNL001, second column): 78.708% | YFP fluorescence quenching using ABT-126 (50 nM abt): −16.65% | YFP fluorescence quenching using CNL001 (100 nM CNL001, first column): 79.567% | YFP fluorescence quenching using CNL001 (100 nM CNL001, second column): 79.273% | YFP fluorescence quenching using CNL002 (100 nM CNL002): 12.83% | YFP fluorescence quenching using ABT-126 (100 nM abt): −12.3% | YFP fluorescence quenching using AZD-0328 (100 nM azd0328): 62.87% | YFP fluorescence quenching using TC-5619/Bradanicline (100 nM brd): 81.41% | YFP fluorescence quenching using ABT-126 (300 nM abt): 18.5% | YFP fluorescence quenching using AZD-0328 (300 nM azd0328): 77.03% | YFP fluorescence quenching using TC-5619/Bradanicline (300 nM brd): 75.79% | YFP fluorescence quenching using Facinicline (300 nM fac): 80.4 | YFP fluorescence quenching using Varenicline (300 nM var, first column): 49.328 | YFP fluorescence quenching using Varenicline (300 nM var, second column): 47.685 | YFP fluorescence quenching using Varenicline (500 nM var, first column): 66.7 | YFP fluorescence quenching using Varenicline (500 nM var, second column): 64.798 | YFP fluorescence quenching using CNL001 (1 uM CNL001, first column): 79.992% | YFP fluorescence quenching using CNL001 (1 uM CNL001, second column): 79.927% | YFP fluorescence quenching using CNL002 (1 uM CNL002): 77.73% | YFP fluorescence quenching using ABT-126 (1 uM abt): 59.09% | YFP fluorescence quenching using TC-5619/Bradanicline (1 uM brd): 82.26% | YFP fluorescence quenching using TC-6987 (1 uM tc6987): 50 | YFP fluorescence quenching using Varenicline (1 uM var, first column): 70.85 | YFP fluorescence quenching using Varenicline (1 uM var, second column): 69.038 | YFP fluorescence quenching using TC-6987 (3 uM tc6987): 80.39 | YFP fluorescence quenching using TC-6987 (5 uM tc6987): 79.93 | YFP fluorescence quenching using Facinicline (10 uM fac): 82.18 | YFP fluorescence quenching using TC-6987 (10 uM tc6987): 80.99 | YFP fluorescence quenching using CNL002 (30 uM CNL002): 80.58% | YFP fluorescence quenching using AZD-0328 (30 uM azd0328): 78.63% | YFP fluorescence quenching using Facinicline (30 uM fac): 82.14 | YFP fluorescence quenching using TC-6987 (30 uM tc6987): 83.11 | YFP fluorescence quenching using TC-6987 (50 uM tc6987): 83.18 | YFP fluorescence quenching using TC-6987 (100 uM tc6987): 82.16 | YFP fluorescence quenching using TC-6987 (300 uM tc6987): 64.58 | YFP fluorescence quenching using TC-6987 (500 uM tc6987): 76.77 | percent quench of YFP fluorescence, 30 nM TC-6683: −18.32% | percent quench of YFP fluorescence, 300 nM TC-6683: −17.25% | percent quench of YFP fluorescence, 3 uM TC-6683: −10% | percent quench of YFP fluorescence, 30 uM TC-6683: −8.51% | percent quench of YFP fluorescence, 100 uM TC-6683: −9.77% | percent quench of YFP fluorescence, 10 uM ach: 4.56% | percent quench of YFP fluorescence, 100 uM ach: 10.19% | percent quench of YFP fluorescence, 1 mM ach: 77.34% | percent quench of YFP fluorescence, 3 mM ach: 77.79%

B2: CODA340: engineered chimeric LGIC receptor, L131E in SEQ ID NO: 33 (protein)
chain: B1 chain with D131E
modifications: synthetic sequence of chimeric LGIC
YFP fluorescence quenching using CNL001 (1 nM CNL001, first column): 76.413% | YFP fluorescence quenching using CNL001 (1 nM CNL001, second column): 77.144% | YFP fluorescence quenching using TC-5619/Bradanicline (3 nM brd): 68.57% | YFP fluorescence quenching using Varenicline (3 nM var, first column): −4.061 | YFP fluorescence quenching using Varenicline (3 nM var, second column): −0.568 | YFP fluorescence quenching using CNL001 (10 nM CNL001, first column): 78.258% | YFP fluorescence quenching using CNL001 (10 nM CNL001, second column): 78.763% | YFP fluorescence quenching using TC-5619/Bradanicline (30 nM brd): 76.85% | YFP fluorescence quenching using Facinicline (30 nM fac): 82.51 | YFP fluorescence quenching using Varenicline (30 nM var, first column): 62.964 | YFP fluorescence quenching using Varenicline (30 nM var, second column): 63.631 | YFP fluorescence quenching using CNL001 (50 nM CNL001, first column): 79.757% | YFP fluorescence quenching using CNL001 (50 nM CNL001, second column): 79.327% | YFP fluorescence quenching using ABT-126 (50 nM abt): 2.2% | YFP fluorescence quenching using CNL001 (100 nM CNL001, first column): 79.011% | YFP fluorescence quenching using CNL001 (100 nM CNL001, second column): 79.948% | YFP fluorescence quenching using CNL002 (100 nM CNL002): 49.97% | YFP fluorescence quenching using ABT-126 (100 nM abt): 25.39% | YFP fluorescence quenching using AZD-0328 (100 nM azd0328): 82.48% | YFP fluorescence quenching using Facinicline (100 nM fac): 83.6 | YFP fluorescence quenching using ABT-126 (300 nM abt): 36.48% | YFP fluorescence quenching using AZD-0328 (300 nM azd0328): 82.04% | YFP fluorescence quenching using TC-5619/Bradanicline (300 nM brd): 78.49% | YFP fluorescence quenching using Facinicline (300 nM fac): 82.92 | YFP fluorescence quenching using Varenicline (300 nM var, first column): 74.912 | YFP fluorescence quenching using Varenicline (300 nM var, second column): 75.084 | YFP fluorescence quenching using Varenicline (500 nM var, first column): 76.346 | YFP fluorescence quenching using Varenicline (500 nM var, second column): 75.876 | YFP fluorescence quenching using CNL001 (1 uM CNL001, first column): 79.855% | YFP fluorescence quenching using CNL001 (1 uM CNL001, second column): 80.618% | YFP fluorescence quenching using CNL002 (1 uM CNL002): 67.8% | YFP fluorescence quenching using ABT-126 (1 uM abt): 50.76% | YFP fluorescence quenching using TC-6987 (1 uM tc6987): 80.13 | YFP fluorescence quenching using Varenicline (1 uM var, first column): 75.805 | YFP fluorescence quenching using Varenicline (1 uM var, second column): 74.856 | YFP fluorescence quenching using TC-6987 (10 uM tc6987): 81.29 | YFP fluorescence quenching using CNL002 (30 uM CNL002): 64.58% | YFP fluorescence quenching using AZD-0328 (30 uM azd0328): 81.8% | YFP fluorescence quenching using Facinicline (30 uM fac): 82.68 | YFP fluorescence quenching using TC-6987 (500 uM tc6987): 79.6 | percent quench of YFP fluorescence, 30 nM TC-6683: 30.14% | percent quench of YFP fluorescence, 300 nM TC-6683: 33.02% | percent quench of YFP fluorescence, 3 uM TC-6683: 41.68% | percent quench of YFP fluorescence, 30 uM TC-6683: 35.75% | percent quench of YFP fluorescence, 100 uM TC-6683: 24.32% | percent quench of YFP fluorescence, 10 uM ach: 15.29% | percent quench of YFP fluorescence, 30 uM ach (acetylcholine 30 uM): 66.56% | percent quench of YFP fluorescence, 100 uM ach: 81.31% | percent quench of YFP fluorescence, 1 mM ach: 80.77% | percent quench of YFP fluorescence, 3 mM ach: 77.31%
